Measured values as given in patent US7214519B2, “Screening method for identifying heme independent modulators of soluble guanylyl cyclase (sGC) activity using αβCys105 mutant sGC” (Board of Regents of the University of Texas System, priority 2003, dated 2007).
Residue numbers refer to the chain shown, from its start. “And” between values parts separate entries of the source, which are not always exact repeats. Identical values can stand only once. Like-named read-outs stand apart in the source and are kept apart here.

T1: αβ^Cys105 mutant sGC (Homo sapiens, UniProt Q02108+Q02153, H105C)
T1 construct: made in house; host or cells: Sf9 cells (baculovirus)
T1 sequence (Q02153 1-619 H105C): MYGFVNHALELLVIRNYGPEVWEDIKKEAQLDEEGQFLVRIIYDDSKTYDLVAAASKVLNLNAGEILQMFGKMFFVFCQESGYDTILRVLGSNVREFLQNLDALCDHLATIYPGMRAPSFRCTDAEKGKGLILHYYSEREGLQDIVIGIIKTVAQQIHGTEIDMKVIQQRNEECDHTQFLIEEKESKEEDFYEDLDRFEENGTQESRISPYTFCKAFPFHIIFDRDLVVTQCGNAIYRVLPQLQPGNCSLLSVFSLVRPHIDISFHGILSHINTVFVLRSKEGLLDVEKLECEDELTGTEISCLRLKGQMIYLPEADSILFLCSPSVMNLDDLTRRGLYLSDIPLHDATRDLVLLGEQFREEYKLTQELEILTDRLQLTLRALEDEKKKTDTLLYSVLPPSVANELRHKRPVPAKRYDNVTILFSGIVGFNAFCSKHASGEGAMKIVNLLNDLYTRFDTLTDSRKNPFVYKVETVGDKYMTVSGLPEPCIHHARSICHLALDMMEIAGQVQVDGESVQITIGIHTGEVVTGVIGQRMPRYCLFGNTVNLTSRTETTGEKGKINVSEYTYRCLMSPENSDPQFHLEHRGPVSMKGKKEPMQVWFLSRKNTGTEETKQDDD
T1 sequence (Q02108 1-690): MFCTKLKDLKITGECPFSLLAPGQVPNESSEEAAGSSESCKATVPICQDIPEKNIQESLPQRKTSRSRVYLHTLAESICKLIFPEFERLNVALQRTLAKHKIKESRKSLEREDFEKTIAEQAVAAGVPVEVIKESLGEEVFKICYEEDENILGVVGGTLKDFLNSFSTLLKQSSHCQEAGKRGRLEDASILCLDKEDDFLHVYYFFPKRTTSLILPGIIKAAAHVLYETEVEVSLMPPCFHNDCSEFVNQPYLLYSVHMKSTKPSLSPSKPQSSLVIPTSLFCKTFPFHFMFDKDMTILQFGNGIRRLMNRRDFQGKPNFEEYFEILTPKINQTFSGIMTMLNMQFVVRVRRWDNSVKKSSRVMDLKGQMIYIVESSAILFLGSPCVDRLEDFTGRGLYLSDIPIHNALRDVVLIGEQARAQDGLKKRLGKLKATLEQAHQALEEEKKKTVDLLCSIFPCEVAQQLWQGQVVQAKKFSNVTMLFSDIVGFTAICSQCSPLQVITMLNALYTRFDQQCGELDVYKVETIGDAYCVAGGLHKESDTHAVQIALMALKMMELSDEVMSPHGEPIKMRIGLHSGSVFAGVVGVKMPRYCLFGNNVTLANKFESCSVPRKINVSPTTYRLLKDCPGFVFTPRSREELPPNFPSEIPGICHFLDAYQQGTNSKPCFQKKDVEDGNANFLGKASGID

T2: Sf9 cells expressing αβ^Cys105 sGC (Homo sapiens, UniProt Q02108+Q02153, H105C)
T2 construct: expressed in transfected cells; host or cells: Sf9 cells infected with baculoviruses
T2 sequence (Q02153 1-619 H105C): T1 sequence (Q02153 1-619 H105C)
T2 sequence (Q02108 1-690): T1 sequence (Q02108 1-690)

T3: αβ^Phe105 sGC (Bos taurus, UniProt P16068+P19687, H105F)
T3 sequence (P16068 1-619 H105F): T1 sequence (Q02153 1-619 H105C) with C105F, E126D, L290S, S574T, K615E, D618E, D619N
T3 sequence (P19687 1-691): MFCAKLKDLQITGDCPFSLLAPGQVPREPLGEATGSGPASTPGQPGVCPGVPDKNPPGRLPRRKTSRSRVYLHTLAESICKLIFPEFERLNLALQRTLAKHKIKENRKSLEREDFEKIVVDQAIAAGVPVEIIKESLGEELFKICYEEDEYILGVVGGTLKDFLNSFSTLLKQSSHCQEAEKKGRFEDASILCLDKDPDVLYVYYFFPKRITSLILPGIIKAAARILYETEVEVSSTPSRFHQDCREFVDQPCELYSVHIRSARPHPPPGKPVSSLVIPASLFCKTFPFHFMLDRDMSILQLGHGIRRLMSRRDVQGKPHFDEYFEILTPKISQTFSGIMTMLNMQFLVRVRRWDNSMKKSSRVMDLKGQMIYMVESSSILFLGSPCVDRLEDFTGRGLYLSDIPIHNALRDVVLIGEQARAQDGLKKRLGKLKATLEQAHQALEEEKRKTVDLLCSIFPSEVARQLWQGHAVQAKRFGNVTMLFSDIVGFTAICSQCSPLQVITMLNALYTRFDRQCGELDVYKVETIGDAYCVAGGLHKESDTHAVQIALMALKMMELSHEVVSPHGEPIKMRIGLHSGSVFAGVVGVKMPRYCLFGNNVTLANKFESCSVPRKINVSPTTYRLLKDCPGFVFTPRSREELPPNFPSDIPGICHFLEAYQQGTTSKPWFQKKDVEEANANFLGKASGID

B1: αβ^Phe105: bovine sGC with βHis105→Phe substitution, from the literature (40) (protein, UniProt P19687 1-691; P16068 1-619, looked up, variant H105F)
Guanylate cyclase soluble … 1: T3 sequence (P19687 1-691)
Guanylate cyclase soluble … 2: T1 sequence (Q02153 1-619 H105C) with C105F, E126D, L290S, S574T, K615E, D618E, D619N
modifications: mutation in beta subunit

Legend:
αβ^Cys105 mutant sGC = molecular target: T1, αβ^Cys105 mutant sGC; experiment: Assay of sGC activity ([32P]cGMP formation from GTP), purified αβ^Cys105 mutant enzyme; assay type: biochemical; conditions: for PPIX activation, fold: 1 μM PPIX
Experimental: sGC Expression and Purification. […] Purification of sGC was performed as described earlier (26), the disclosure of which is hereby incorporated herein by reference, with the following modifications. Cells were harvested 72 h post infection, resuspended in loading buffer (25 mM triethanolamine, pH 7.5. 10 glycerol, 4 mM MgCl2 and 1 mM phenylmethylsulfonyl fluoride, and 5 μg/ml each of pepstatin A, leupeptin, aprotinin, and chymostatin,) and lysed by sonication. The lysate was subjected to 100,000×g centrifugation for 1 h. The high-speed supernate was loaded on a 60 ml DEAE-Sepharose (Amersham Pharmacia Biotech) column and washed with 60 ml of loading buffer without protease inhibitors. The proteins were eluted with loading buffer containing 250 mM NaCl and the eluate was directly loaded on a 30 ml His-Bind resin (Novagen) column. The column was washed with 60 ml of loading buffer followed by 60 ml of loading buffer with 45 mM imidazole. The enzyme was eluted with 175 mM imidazole and 2 ml fractions were collected. […] The enzyme at this stage was approximately 90–95% pure. To remove imidazole, sGC-containing fractions were diluted 3 fold with 25 mM triethanolamine pH 7.5, loaded on a 2 ml Hi-Trap DEAE-Sepharose column (Amersham Pharmacia Biotech), washed with 10 ml of loading buffer and eluted with 25 mM triethanolamine pH 7.5, 250 mM NaCl, 10 glycerol, 4 mM MgCl2, 0.5 mM EDTA, 0.5 mM EGTA. The enzyme obtained at this stage (95% or greater purity) was used for experiments.
Assay of sGC Activity. Enzyme activity was assayed by formation of [^32P] cGMP from α[^32P]GTP at 37° C. in a final volume of 100 μl. Incubation medium contained 50 mM triethanolamine-HCl buffer (pH 7.4), 1 mM 3-isobutyl-1-methylxanthine (IBMX), 1 mg/ml BSA. 1 mM cGMP, 3 mM MgCl2, 0.05 mg/ml creatine phosphokinase, 5 mM creatine phosphate, 0.1 mM EGTA. 200 μM GTP (about 10.000 cpm/pmol). The reaction was started by addition of the substrate (GTP) with or without activators. 1 mM DTT, GSH or cysteine were added to the incubation medium before the addition of GTP. Thiol concentration varied in some experiments as indicated. Samples containing 0.2 μg sGC were incubated for 10 or 15 min and the reaction was stopped by addition of 500 μl 150 mM zinc acetate and 500 μl 180 mM sodium carbonate. The pellet of zinc carbonate containing most of the unreacted GTP was removed by centrifugation and the supernatant fractions were loaded onto columns filled with 1 g of neutral alumina. Columns were then eluted with 10 ml 0.1 M Tris-HCl buffer (pH 7.5) and Cherenkov radiation in flow through plus eluate was counted in a LKB liquid scintillation spectrometer. Samples incubated in the absence of sGC were used as a negative control. The concentration of dimethylsulfoxide (DMSO) used as a vehicle for YC-1 was not higher than 0.1 and had no effect on sGC activity as determined previously.

[1] = molecular target: T2, Sf9 cells expressing αβ^Cys105 sGC; experiment: cGMP accumulation in intact Sf9 cells expressing αβ^Cys105 sGC; assay type: cell-based
Experimental: Assay of cGMP Accumulation in Intact Cells. […] The reaction was terminated by addition of 50 μl of 1 M perchloric acid and cGMP was extracted on ice for 1 h. The extract was centrifuged, neutralized with 2M K2CO3 and used for cGMP determination by radioimmunoassay (9, 27). The pellet was dissolved in 0.1 M NaOH and used for protein assay by the method of Lowry (28).
Accumulated cGMP was extracted and quantified as described in Materials and Methods. Values are shown as means±s.d. The differences in intracellular accumulation of cGMP in Sf9 cells expressing the wild type enzyme or the mutant form are discussed below.

αβ^Phe105 sGC = molecular target: T3, αβ^Phe105 sGC; conditions: cited from earlier work; for Specific activity: with DTT

Row | Molecule | Km (αβ^Cys105 mutant sGC; +DTT) [µM] | PPIX activation, fold (αβ^Cys105 mutant sGC; +DTT) [fold] | Specific activity (αβ^Cys105 mutant sGC; +NO, with DTT, after heme reconstitution) [µmol/min/mg] | Specific activity (αβ^Cys105 mutant sGC; +NO, without DTT, after heme reconstitution) [µmol/min/mg] | Specific activity (αβ^Cys105 mutant sGC; Basal, with DTT (1 mM)) [µmol/min/mg] | Specific activity (αβ^Cys105 mutant sGC; Basal, without DTT) [µmol/min/mg] | Km (αβ^Cys105 mutant sGC; No DTT) | PPIX activation, fold (αβ^Cys105 mutant sGC; No DTT) [fold] | Specific activity (αβ^Cys105 mutant sGC; absence of thiols, n=4 independent purifications) [µmol/min/mg] | Specific activity (αβ^Cys105 mutant sGC; sample without any thiols (FIG. 1B, defined as 100)) [µmol/min/mg] | basal cGMP accumulation relative to NO-activated cells overexpressing wild type enzyme [1] | basal level of cGMP accumulation ([1]; basal, 0.5 mM IBMX) [nmol/mg/5 min] | Specific activity (αβ^Phe105 sGC; +NO) [µmol/min/mg] | Specific activity (αβ^Phe105 sGC; Basal) [µmol/min/mg] | basal activity (αβ^Phe105 sGC)
1 | αβ^Cys105: heme-deficient, constitutively active human soluble guanylyl cyclase mutant; β subunit carries His105→Cys substitution | 153 ± 11 | 5.4 | 0.44 ± 0.08 | 1.2 ± 0.2 | 0.12 ± 0.01 | 1.2 ± 0.3 | ~150 µM and 150 µM | 1.8 | 0.0012 ± 0.0003 | 1e-06 ± 1e-07 | about ten times higher | 33 |  |  | 
2 | B1 |  |  |  |  |  |  |  |  |  |  |  |  | 0.11 ± 0.03 | 0.04 ± 0.03 | about 40 nmol/min/mg
